Where a chain is given by its changes, count along the chain named. Values joined by “and” are separate entries in the source; they are usually repeats but may differ in a detail not shown here. Equal values may be shown once.
B1: PINT-11A1 IgG (antibody, V domains shown)
VH: EVQLVESGGGVVQPGRSLRLSCAASGFTFSDFAMHWVRQIPGKGLEWLSGLRHDGSTAYYAGSVKGRFTISRDNSRNTVYLQMNSLRAEDTATYYCVTGSGSSGPHAFPVWGKGTLVTVSS
VL: not shown
B2: PINT-11A11 IgG (antibody, V domains shown)
VH: QVQLVESGGGLVKPGGSLRLSCAASGFTFSSHTMNWVRQAQGKGLEWVSSISGSGRYIYYSDSVKGRFTISRDAAKNSLYLQMNNLRAEDTAVYYCTRAKFGDYLFDSWGQGTLVTVSS
VL: LNFMLTQPHSVSQSPGKTVTISCTRSSGRIASNFVQWYQQRPGSAPTTVIYEDNRRPSGVPDRFSGSIDSSSNSASLTISGLKTEDEADYYCQSYDARYQVFGTGTKVTVLG
B3: PINT-11A12 IgG (antibody, V domains shown)
VH: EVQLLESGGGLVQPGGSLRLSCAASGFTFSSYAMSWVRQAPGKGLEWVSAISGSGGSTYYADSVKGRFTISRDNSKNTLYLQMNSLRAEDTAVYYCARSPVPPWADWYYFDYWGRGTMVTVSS
VL: AQAVLTQPSSVSGAPGQRVTISCTGSRSNFGAGYDVHWYQQFPGTAPKLLIYGNTNRPSGVPDRFSGSRSGTSASLAITGLQAEDEADYYCQSYDSNLSGSVFGGGTKVTVLG
B4: PINT-7A2 IgG (antibody, V domains shown)
VH: GVQLVQSGAEVKKPGESLTISCKGSGYNFFNYWIGWVRQMPGKGLEWMGIIYPTDSDTRYSPSFQGQVTISVDKSISTAYLQWSSLKASDTAMYYCARSIRYCPGGRCYSGYYGMDVWGQGTMVTVSS
VL: SELTQDPAVSVALGQTVRITCQGDSLRSYYTNWFQQKPGQAPLLVVYAKNKRPSGIPDRFSGSSSGNTASLTITGAQAEDEADYYCNSRDSSGNHVVFGGGTKLTVLG
B5: PINT-7A6 IgG (antibody, V domains shown)
VH: B4 VH with G1E, M123L
VL: B4 VL
B6: PINT-11A3 IgG (antibody, V domains shown)
VH: EVQLVQSGAEVKKPGASVKVSCKASGYSFTNYGLNWVRQAPGQGLEWMGWISPYTGYTNYAQKFQGRVTMTTDKSTSTAYMDLRSLRSDDTAVYYCAREIFSHCTGGSCYPFDSWGRGTLVTVSS
VL: LSSELTQDPAVSVALGQTVRITCQGDSLRNYYASWYQQKPGQAPLLVMFGKNNRPSEIPGRFSGSSSGNTASLTITGAQAEDEADYYCNSRDRNSHQWVFGGGTKLTVLG
B7: PINT-11A7 IgG (antibody, V domains shown)
VH: B6 VH with N35D, L120M
VL: LSSELTQDPAVSVALGQTVRITCQGDSLRSYYASWYQQKPGQAPVLVIYGKNNRPSGIPDRFSGSSSGNTASLTITGAQAEDEADYYCNSRDSSGNHRNWVFGGGTKVTVLG
B8: PINT-11A5 IgG (antibody, V domains shown)
VH: B6 VH with E1Q, R117K
VL: LSSELTQDPAVSVALGQTVRITCQGDSLRSYYASWYQQKPGQAPVLVIYGKNNRPSGIPDRFSGSSSGNTASLTITGAQAEDEADYYCNSRDSSGNHHWVFGGGTKVTVLG
B9: PINT-12A1 IgG (antibody, V domains shown)
VH: B6 VH with R117K
VL: LSSELTQDPAVSVALGQTVRITCQGDSLRNYYASWYQQKPGQAPVLVLYSKNSRPSGVPDRFSGSSSGTTASLTISGAQAEDEADYYCNSRDTSGDLRWVFGGGTKLTVLG
notes: see recheck
B10: PINT-12A3 IgG (antibody, V domains shown)
VH: B6 VH with E1Q, T72S, V93I, T105S, S114Y, R117Q
VL: B7 VL with V45L, K51R, G95T, R98G, K107Q, V108L, G112S
B11: PINT-12A2 IgG (antibody, V domains shown)
VH: B6 VH with R117Q
VL: B6 VL with R93S
B12: PINT-12A4 IgG (antibody, V domains shown)
VH: B6 VH with E1Q, L120M
VL: B8 VL with H97L, H98N, K106Q, V107L, G111S
B13: PINT-11A2 IgG (antibody, V domains shown)
VH: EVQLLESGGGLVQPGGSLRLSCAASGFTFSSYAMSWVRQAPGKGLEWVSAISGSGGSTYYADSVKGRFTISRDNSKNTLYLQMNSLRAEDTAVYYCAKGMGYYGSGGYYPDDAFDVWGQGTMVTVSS
VL: LSSELTQDPDVSMALGQTVTISCRGDSLKRFYASWYHQKPGQAPVLVFYGKENRPSGIPDRFSGSDSGDTASLTITGAQAEDEGDYYCHTQDTSARQYVFGSGTKVTVLG

These binders were tested against T1, human IGF-I receptor on cells (NIH-3T3 fibroblasts expressing the human IGF-IR; DU145 cells) (human, UniProt P08069 31-1367) (assay: cell-based or functional assay).

Row | Binder | IC50 (nM), IGF-1 dependent proliferation of NIH-3T3/hIGF-1R cells (BrdU ELISA)
1 | B1 | 5.4 nM and 3.3 nM
2 | B2 | 16.4 nM and 25 nM
3 | B3 | > 70 nM
4 | B4 | 5 nM and 3.8 nM
5 | B5 | > 70 nM
6 | B6 | 32.1 nM and > 70 nM
7 | B7 | > 70 nM
8 | B8 | > 70 nM
9 | B9 | > 70 nM
10 | B10 | > 70 nM
11 | B11 | > 70 nM
12 | B12 | > 70 nM
13 | B13 | > 70 nM

What follows are binders tested against T2, human insulin receptor on CHO cells (human, UniProt P06213 28-1382) (assay: competition with 125I-insulin, CHO cells expressing human insulin receptor, 4 C).
T2 construct: whole, on cells
Protocol: The Parental 3T3 cells were used as a control for background radioactivity. We then incubated the plates at 37° C., 5% CO₂ for 24 hours to allow cells to attach and become 80-90% confluent. The media was decanted from the plates, replaced with 500 μl per well of starvation or assay media consisting of IMDM, 20 mM Hepes (Gibco, #15630-080), 2 mM L-glutamine and 0.1% bovine serum albumin (Equitech-Bio, protease-free, Kerryville, Tex.) and the plates were incubated at 37° C., 5% CO₂ overnight. The antibodies were diluted in cold assay media to the desired final concentration and added 100 μl per well. All samples were performed in duplicate. The plates were incubated at 4° C. for 30 minutes. […] The plates were incubated for 2.5 hours at 4° C., then aspirated the media and washed 3× with cold DPBS (Gibco, #14040-117). The cells were lysed by adding 500 μl 0.2 NaOH, 2% SDS and incubating the plates for 15 minutes at 60° C. The samples were transferred to 12×75 tubes (Sarsted, #55.476, 5 ml) and the signal read on a gamma counter.

Row | Binder | IC50
14 | B2 | > 200 nM
15 | B3 | > 200 nM
16 | B7 | > 200 nM
17 | B8 | > 200 nM
18 | B9 | > 200 nM
19 | B10 | > 200 nM
20 | B11 | > 200 nM
21 | B12 | > 200 nM

Target: T1, human IGF-I receptor on cells (NIH-3T3 …)
Assay: cell-based or functional assay
Remark: another data set of the same source

Row | Binder | Antagonist Assay IC50 (nM), IGF-I-induced IGF-1R tyrosine phosphorylation (ELISA)
22 | B1 | 5.4 nM and 7.4 nM
23 | B2 | 14.9 nM and 10.6 nM
24 | B3 | > 40 nM
25 | B4 | 2.62 nM and 1.97 nM
26 | B5 | 9.7 nM and 8.5 nM
27 | B7 | 26.6 nM and > 40 nM and 25.5 nM
28 | B8 | > 40 nM
29 | B9 | > 40 nM
30 | B10 | > 40 nM
31 | B11 | > 40 nM
32 | B12 | > 40 nM
33 | B13 | > 40 nM

The binders below were run against T1, human IGF-I receptor on cells (NIH-3T3 …) (assay: competition with 125I-IGF-II, NIH-3T3 cells expressing human IGF-1R, 4 C).
Protocol: (§1) NIH-3T3 fibroblasts expressing the human IGF-IR, or NIH-3T3 non-transfected fibroblasts were plated at 6×10⁴ cells per well in 0.5 ml of DMEM (Gibco, #11960-044) supplemented with 10% heat-inactivated fetal bovine serum (Gibco, #16140-071), 2 mM L-glutamine (Gibco, #25030-081) and 50 U/ml penicillin-streptomycin (Gibco, #15070-063). The NIH-3T3 cells were used as a control for non-specific cell binding. The plates were incubated at 37° C./5% CO₂ for 24 hours to allow cells to attach and become 80-90% confluent. The overlying media was then replaced with 0.5 ml per well of starvation media consisting of DMEM, 20 mM Hepes (Gibco, #15630-080), 2 mM L-glutamine and 0.1% bovine serum albumin (Equitech-Bio, protease-free, Kerrville, Tex.) and the plates were incubated at 37° C., 5% CO₂ overnight. All subsequent binding steps were conducted at 4° C. Test antibodies were diluted in ice-cold starvation media to the desired final concentration and 100 μl added per well. All samples were performed in duplicate. […] Cell monolayers were washed three times with ice-cold PBS (Gibco, #14040-117) and cells and associated radioactivity were released by adding 0.5ml 2% sodium dodecyl sulfate/0.2N NaOH to each well and heating the plates at 60° C. for 15 minutes. Lysate associated radioactivity was quantitated by gamma scintillation spectrometry. Alternatively, the same described experiment was performed with preincubation with the test antibodies at 37° C. for 10 minutes, followed by 10 minutes incubation at 37° C. after addition of 400 pM of the iodinated radioligand.

Row | Binder | IC50
34 | B1 | > 75 nM
35 | B4 | < 0.8 nM and 0.4 nM
36 | B5 | < 0.8 nM and 0.3 nM

Each binder was assayed against T1, human IGF-I receptor on cells (NIH-3T3 …) (assay: competition with 125I-IGF-I, NIH-3T3 cells expressing human IGF-1R, 4 C).
Protocol: as §1

Row | Binder | IC50
37 | B1 | 8 nM and 10 nM
38 | B2 | 1.6 nM
39 | B4 | 0.5 nM and 1.3 nM
40 | B5 | 1 nM and 0.8 nM
41 | B6 | 1.1 nM and 1.2 nM
42 | B7 | 1 nM and 1.4 nM
43 | B8 | 1.2 nM and < 0.4 nM and 0.75 nM
44 | B9 | 1.5 nM and 1.2 nM
45 | B10 | 1.5 nM and 1.7 nM
46 | B11 | 1 nM and 0.7 nM
47 | B12 | > 50 nM
48 | B13 | > 100 nM

— patent US20040202655A1 (published 2004)
